Common to all, as to experiment: cell-based or functional assay
The target of experiment [1] is Hemagglutinin of H1-WS33 virus (Influenza A virus (H1-WS33)).
Experiment [2] has as its target Hemagglutinin of H1-IVR148 virus (Influenza A virus (H1-IVR148)).
Experiment [3] addresses Hemagglutinin of H1N1 A/California/07/2009 virus (Influenza A virus A/California/07/2009 …).
Experiment [4] has as its target Hemagglutinin of H9-RG26 virus (Influenza A virus (H9-RG26)).
The target in experiment [5] is Hemagglutinin of H13-MD77 virus (Influenza A virus (H13-MD77)).
The target in experiment [6] is Hemagglutinin of H16-DE09 virus (Influenza A virus (H16-DE09)).

Consider 2 molecules from US20160176953A1 (Regeneron, published 2016).

B1: H1H11729P (antibody, V domains shown)
VH: QVQLVQSGAEVKKSGSSVKVSCKASGGTFSSYAISWVRQAPGQGLEWMGGIIPIFGTPSYAQKFQDRVTITTDESTSTVYMELSSLRSEDTAVYYCARQQPVYQYNMDVWGQGTTVTVSS
VL: DIQMTQSPSSLSASVGDRVTITCRASQGIRNNLGWYQQKPLKAPKRLIYAASSLQSGVPSRFSGSGSGTEFTLTISSLQPEDFATYYCLQYNNYPWTFGQGTKVEIK
Take B1: the “IC50 (nM), cell viability microneutralization assay (MDCK)” value was 2.47 nM in experiment [1]; 130 nM in experiment [2]; 4.54 nM in experiment [3]; 14.9 nM in experiment [4]; 33.8 nM in experiment [5]; 21.6 nM in experiment [6].

B2: H2aM11829N (antibody, V domains shown)
VH: QVHLVQSGPEVKKPGSSVKVSCKASGVTFISHAISWVRQAPGQGLEWVGGIIAIFGTTNYAQKFQGRVTVTTDKSTNTVYMELSRLRSEDTAIYYCARGETYYEGNFDFWGQGTLVTVSS
VL: VIQMTQSPSSLSASVGDRVTITCRASQSVRSNLNWYQQTPGKAPRLLIYAASSLQSGVPSRFSGSGSGTDFTLTISSLQPEDFATYYCQQSYSTPPITFGQGTRLEIK
As for B2, the “IC50 (nM), cell viability microneutralization assay (MDCK)” value in experiment [1] came to 1.68 nM; in experiment [2], 48 nM; in experiment [3], 3.5 nM; in experiment [4] it was 10.2 nM; in experiment [5] it was 2.11 nM; in experiment [6] it was 7.39 nM.
